Source: patent US20220089784A1 (University of California, published 2022)
Where two headings read alike, the source gives them in different places.

Assays:
[1] = molecular target: BoNT/A light chain (recombinant) (Clostridium botulinum, UniProt P0DPI0 1-448); test: KinExA, IgG
[2] = molecular target: T1, BoNT/A1 holotoxin (Hall hyper) (Clostridium botulinum, UniProt P0DPI0 2-1296); test: KinExA, IgG
BoNT/B1 = molecular target: T2, BoNT/B1 (Clostridium botulinum, UniProt P10844 2-1291); test: yeast scFv FACS
T2 sequence: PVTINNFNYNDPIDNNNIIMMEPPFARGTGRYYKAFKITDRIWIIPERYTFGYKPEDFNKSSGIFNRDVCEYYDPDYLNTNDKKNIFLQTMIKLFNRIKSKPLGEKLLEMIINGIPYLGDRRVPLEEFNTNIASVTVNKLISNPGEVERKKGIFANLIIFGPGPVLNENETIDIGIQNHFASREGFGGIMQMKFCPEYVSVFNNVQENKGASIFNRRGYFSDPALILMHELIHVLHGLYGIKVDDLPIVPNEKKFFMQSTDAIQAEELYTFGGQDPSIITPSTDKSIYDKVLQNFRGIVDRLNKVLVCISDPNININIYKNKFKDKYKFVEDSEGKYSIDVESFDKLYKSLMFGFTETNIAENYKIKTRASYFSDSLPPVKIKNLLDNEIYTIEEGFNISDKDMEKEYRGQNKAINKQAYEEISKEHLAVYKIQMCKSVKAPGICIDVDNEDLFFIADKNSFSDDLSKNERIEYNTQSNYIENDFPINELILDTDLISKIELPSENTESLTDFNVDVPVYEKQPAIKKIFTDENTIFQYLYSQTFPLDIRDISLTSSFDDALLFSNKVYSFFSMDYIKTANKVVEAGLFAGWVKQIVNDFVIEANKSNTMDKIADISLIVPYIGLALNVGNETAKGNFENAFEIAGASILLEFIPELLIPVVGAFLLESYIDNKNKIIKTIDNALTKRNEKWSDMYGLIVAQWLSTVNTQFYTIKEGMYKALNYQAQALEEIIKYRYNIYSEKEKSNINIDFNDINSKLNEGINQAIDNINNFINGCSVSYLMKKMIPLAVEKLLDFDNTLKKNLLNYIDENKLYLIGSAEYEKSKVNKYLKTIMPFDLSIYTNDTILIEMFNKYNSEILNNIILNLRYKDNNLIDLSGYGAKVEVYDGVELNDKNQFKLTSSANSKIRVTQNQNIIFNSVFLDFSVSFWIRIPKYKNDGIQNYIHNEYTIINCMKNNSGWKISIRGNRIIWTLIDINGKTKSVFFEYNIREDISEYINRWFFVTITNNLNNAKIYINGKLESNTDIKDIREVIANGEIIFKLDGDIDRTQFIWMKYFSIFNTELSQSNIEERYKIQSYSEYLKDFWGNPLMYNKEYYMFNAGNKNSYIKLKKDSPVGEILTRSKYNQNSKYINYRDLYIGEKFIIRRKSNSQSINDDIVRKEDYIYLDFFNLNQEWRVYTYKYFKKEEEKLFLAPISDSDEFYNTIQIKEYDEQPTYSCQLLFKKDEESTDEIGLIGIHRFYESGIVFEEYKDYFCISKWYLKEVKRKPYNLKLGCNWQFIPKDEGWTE

[3] = molecular target: T3, BoNT/B HC (C-terminal domain of the BoNT/B heavy chain, recombinant) (Clostridium botulinum, UniProt P10844 853-1291); test: yeast scFv FACS
T3 sequence: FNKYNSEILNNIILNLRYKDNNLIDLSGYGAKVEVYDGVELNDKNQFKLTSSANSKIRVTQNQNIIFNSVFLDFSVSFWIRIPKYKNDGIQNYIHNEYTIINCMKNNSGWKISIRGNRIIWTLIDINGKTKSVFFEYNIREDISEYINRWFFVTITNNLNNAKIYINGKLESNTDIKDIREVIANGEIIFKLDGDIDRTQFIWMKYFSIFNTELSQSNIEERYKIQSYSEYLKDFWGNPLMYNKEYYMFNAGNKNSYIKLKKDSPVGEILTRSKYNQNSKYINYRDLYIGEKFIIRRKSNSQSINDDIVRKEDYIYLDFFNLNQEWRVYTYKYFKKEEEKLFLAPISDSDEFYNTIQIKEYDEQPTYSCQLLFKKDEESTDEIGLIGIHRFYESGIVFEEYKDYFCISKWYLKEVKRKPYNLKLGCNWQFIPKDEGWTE

[4] = molecular target: T1, BoNT/A1 holotoxin (Hall hyper)
[5] = molecular target: T4, BoNT/F1 (proteolytic BoNT/F) (Clostridium botulinum, UniProt A7GBG3 1-1278)
T4 sequence: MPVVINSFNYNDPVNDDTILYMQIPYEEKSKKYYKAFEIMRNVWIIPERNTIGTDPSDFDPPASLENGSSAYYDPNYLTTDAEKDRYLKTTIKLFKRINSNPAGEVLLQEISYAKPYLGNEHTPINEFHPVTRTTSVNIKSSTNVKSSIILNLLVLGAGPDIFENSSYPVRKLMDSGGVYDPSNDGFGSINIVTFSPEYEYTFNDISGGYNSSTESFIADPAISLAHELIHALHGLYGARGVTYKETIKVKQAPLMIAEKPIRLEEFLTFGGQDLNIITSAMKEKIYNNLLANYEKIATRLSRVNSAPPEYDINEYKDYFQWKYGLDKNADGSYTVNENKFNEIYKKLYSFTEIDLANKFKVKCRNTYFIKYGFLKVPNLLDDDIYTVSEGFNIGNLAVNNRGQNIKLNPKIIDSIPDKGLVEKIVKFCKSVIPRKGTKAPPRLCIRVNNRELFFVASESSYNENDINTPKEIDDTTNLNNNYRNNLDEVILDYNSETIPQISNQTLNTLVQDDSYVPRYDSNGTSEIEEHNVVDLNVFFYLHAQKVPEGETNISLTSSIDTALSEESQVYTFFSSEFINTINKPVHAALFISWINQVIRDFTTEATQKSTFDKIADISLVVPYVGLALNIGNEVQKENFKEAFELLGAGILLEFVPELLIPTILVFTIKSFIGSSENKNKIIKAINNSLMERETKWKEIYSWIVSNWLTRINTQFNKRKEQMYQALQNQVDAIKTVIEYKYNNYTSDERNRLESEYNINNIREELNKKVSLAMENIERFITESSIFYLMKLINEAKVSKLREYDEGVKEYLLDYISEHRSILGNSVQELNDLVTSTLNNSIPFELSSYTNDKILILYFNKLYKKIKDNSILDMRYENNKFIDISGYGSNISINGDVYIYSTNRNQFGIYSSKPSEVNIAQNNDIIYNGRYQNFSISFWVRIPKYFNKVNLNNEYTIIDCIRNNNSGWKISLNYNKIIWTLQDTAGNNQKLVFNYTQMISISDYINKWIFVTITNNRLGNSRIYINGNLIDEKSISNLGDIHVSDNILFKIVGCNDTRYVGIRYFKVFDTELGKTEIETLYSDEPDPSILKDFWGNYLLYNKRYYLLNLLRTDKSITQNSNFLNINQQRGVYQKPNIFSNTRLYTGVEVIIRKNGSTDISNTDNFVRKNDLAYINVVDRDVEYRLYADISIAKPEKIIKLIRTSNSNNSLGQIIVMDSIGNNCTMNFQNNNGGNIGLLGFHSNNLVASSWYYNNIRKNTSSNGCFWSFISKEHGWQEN

[6] = molecular target: T4, BoNT/F1 (proteolytic BoNT/F); test: yeast scFv FACS
BoNT/F 202F = molecular target: T5, BoNT/F 202F (Clostridium botulinum, UniProt P30996 1-1274); test: yeast scFv FACS
T5 sequence: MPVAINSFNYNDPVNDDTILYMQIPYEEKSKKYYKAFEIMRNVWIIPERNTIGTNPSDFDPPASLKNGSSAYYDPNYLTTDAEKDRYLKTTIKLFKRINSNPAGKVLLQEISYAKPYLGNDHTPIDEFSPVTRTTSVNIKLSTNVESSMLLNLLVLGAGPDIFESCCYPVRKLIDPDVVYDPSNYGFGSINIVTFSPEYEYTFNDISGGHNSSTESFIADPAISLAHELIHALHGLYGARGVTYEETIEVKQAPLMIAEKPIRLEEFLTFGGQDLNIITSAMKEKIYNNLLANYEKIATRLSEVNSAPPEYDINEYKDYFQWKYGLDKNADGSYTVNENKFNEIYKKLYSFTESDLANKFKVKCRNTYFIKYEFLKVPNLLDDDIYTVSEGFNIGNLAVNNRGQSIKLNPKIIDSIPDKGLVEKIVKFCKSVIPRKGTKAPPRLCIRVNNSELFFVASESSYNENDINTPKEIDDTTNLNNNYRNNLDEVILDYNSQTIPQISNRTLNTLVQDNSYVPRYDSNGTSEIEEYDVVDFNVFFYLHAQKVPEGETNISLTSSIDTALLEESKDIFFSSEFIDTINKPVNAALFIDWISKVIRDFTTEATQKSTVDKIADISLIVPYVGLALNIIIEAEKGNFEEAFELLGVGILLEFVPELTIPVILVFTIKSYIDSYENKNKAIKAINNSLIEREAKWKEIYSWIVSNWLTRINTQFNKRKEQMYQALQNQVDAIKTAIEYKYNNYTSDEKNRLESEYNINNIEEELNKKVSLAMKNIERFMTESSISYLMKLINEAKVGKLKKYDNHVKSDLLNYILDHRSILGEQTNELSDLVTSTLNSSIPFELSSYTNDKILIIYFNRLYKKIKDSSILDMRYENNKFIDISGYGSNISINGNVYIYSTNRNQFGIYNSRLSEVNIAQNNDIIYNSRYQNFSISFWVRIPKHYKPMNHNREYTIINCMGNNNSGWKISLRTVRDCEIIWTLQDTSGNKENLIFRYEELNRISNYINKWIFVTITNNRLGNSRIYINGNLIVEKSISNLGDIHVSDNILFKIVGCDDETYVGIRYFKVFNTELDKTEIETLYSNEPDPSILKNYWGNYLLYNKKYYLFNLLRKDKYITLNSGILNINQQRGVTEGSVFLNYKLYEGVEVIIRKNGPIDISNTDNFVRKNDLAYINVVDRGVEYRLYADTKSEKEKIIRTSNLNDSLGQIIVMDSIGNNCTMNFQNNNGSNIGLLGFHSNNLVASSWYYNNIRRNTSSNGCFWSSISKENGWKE

B1: 6A8M IgG (antibody, V domains shown)
VH: QVQLKESGPGLVKPSQTVSLTCTVTGYSITNGNHWWNWIRQVSGSKLEWIGYISSSGYTDINPSLKSRISITRDTSKNQLFLQLNSVTTEDIATYYCARDDGYYEALDYWGQGTSVTVSS
VL: DIVMSQSPAIMSASPGEKVTLTCSASSSVSSNYLYWYQQKPGSSPKLWIYSTSNLASGVPARFSGSGSGTSYSLTISRVEAEDAATYYCQQWSSNPPTFGGGTKLEIK
notes: IgG converted from scFv
Kd [1]: 4.99 nM | Kd [2]: 0.852 nM

B2: 26G5 scFv (scFv)
scFv: EVQLQESGPGLAKPSQTLSLTCSVTGYSITSDYWNWIRKFPGNKLEYMGYISYSGSTYYNPSLKSRISITRDTSKNQYYLQLNSVTTEDTATYYCARSFYDGYLYFDYWGQGTTVTVSSVDLKSGGSTSGSGKPGSGEGSSGSAREIVLTQSPAILSASPGEKVTMTCSASSSVSYMYWYQQKPGSSPRLLIYDTSNLASGVPARFSGSGSGTSYSLTISRVEAEDAATYYCQQWSSYPPTFGDGTRLEIK
notes: mouse
Kd (BoNT/B1): 3.91 nM | Kd [3]: 1.79 nM

B3: B4 (antibody) (antibody, V domains shown)
VH: QVQLVESGGGVVRPGGSLRLSCAASGFTFDDYGMSWVRQAPGKGLEWVSAINWNGGNTGYADSVKGRFTISRDNAKNSLYLQMNSLRVEDTALYHCAREGDYGGLYFDYWGQGTLVTVSS
VL: not shown
Kd [4]: 0.0931 nM

B4: 42G8 scFv (scFv, V domains shown)
VH: EVQLVPSGGNLVQPGGSLRLSCAATGPIGSHWMTWVRQAPGQGLEWVANINLDGTEKFYVDSVKGRFTVSRDNRKSSVFLQMNNLRVDDTAVYYCARLQWGGYNGWLSPWGQGTLVTVSS
VL: DIVMTQSPPSLSASVGDRVSLTCRASEYIGTSLNWYQQKPGKAPKLLIYAASALHSGVPSRFSGSGSGTDFTLTISGLQPEDFATYYCQQTNDLPLTFGGGTKLEIK
fold increase in affinity over scFv 4E17.2 [5]: ~6 fold | Kd [6]: 0.243 nM | binding result (BoNT/F 202F): binds

B5: 26E6 scFv (scFv)
scFv: EVQLQQSGPELVKPGASVKISCKASGYTFADYYINWVKQSHGKSLEWIGDFNPNNGDHSYNQKFKDKATLTVDESSNTAYMELRSLTSEDSAVYYCTREFYYYFDVWGTGTTVTVSSVDLKSGGSTSGSGKPGSGEGSSGSARDIVMSQSPLSLPVSLGDQAFISCRFSQSIVHSNGNTYLEWYLQKPGQSPKLLIYKVSNRFSGVPDRFSGSGSGTDFTLKISRVEAEDLGVYYCFQGSHVPYTFGGGTKLEIK
notes: mouse
Kd (BoNT/B1): 4.85 nM | Kd [3]: 0.889 nM

B6: 26C2 scFv (scFv)
scFv: QVQLKQSGPELVKPGASVKLSCKASGYTFTSYDINWVKQRPGQGLEWIGWIYPRDDITKYNEKFKDKATLTVDTSSSTAYMELHSLTSEDSAVYFCARGDYYGSLDYWGQGTTLTVSSVDLKSGGSTSGSGKPGSGEGSSGSARQIVLTQSPAIMSASPGEKVTMTCSASSSVSYMHWYQQKSSTSPKLWIYDTSKLASGVPGRFSGSGSGNSYSLTISSMEAEDVATYYCFQGSGYPLTFGAGTKLEIK
notes: mouse
Kd (BoNT/B1): 23.7 nM | Kd [3]: 7.76 nM
